Source: paper PMC6480404

Columns and labels:
[1] = molecular target: Streptococcus pyogenes Cas9 (Streptococcus pyogenes) (UniProt Q99ZW2); assay: cryo-EM structure
[2] = molecular target: Streptococcus pyogenes Cas9 (Streptococcus pyogenes) (UniProt Q99ZW2); assay: native gel or EMSA

AcrIIA2 (natural protein) showed a stoichiometry N [1] of 1 and a Kd [2] of 512 nM.
